The results in this text go back to patent US20190085093.

The target of series [1] is FCHo1-C-3×DDK mutation Δ531-589, O14526.
Series [2] addresses FCHo1-C-3×DDK mutation Δ563-564, O14526.

Sequence of FCHo1-C-3×DDK mutation Δ531-589, O14526 (O14526 whole entry, looked up, stated change not applied, tested part not stated): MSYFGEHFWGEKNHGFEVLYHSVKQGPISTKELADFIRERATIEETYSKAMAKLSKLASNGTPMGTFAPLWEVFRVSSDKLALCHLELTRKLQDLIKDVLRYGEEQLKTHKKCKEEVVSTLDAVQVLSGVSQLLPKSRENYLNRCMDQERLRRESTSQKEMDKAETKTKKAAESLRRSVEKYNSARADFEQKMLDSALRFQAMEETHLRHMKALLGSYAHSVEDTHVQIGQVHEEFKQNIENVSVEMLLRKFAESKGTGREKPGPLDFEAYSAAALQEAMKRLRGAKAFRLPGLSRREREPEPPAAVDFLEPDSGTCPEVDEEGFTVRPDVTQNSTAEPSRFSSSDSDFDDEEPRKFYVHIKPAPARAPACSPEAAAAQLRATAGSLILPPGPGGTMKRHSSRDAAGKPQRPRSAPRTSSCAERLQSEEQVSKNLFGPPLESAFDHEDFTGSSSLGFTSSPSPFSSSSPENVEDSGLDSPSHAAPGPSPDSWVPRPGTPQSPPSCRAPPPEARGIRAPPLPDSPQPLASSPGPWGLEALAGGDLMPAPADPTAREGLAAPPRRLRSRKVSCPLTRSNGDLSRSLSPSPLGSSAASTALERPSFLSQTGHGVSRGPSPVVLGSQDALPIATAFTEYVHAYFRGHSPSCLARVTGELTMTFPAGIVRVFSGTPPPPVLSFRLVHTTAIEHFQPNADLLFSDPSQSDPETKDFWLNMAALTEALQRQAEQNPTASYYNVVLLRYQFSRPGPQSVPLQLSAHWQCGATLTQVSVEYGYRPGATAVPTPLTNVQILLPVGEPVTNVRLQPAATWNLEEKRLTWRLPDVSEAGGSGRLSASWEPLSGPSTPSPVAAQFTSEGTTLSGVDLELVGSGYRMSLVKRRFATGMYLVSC
Sequence of FCHo1-C-3×DDK mutation Δ563-564, O14526 (O14526 whole entry, looked up, stated change not applied, tested part not stated): as above

B1: matrix metallopeptidase 9 (MMP-9) (protein)
chain: APRQRQSTLVLFPGDLRTNLTDRQLAEEYLYRYGYTRVAEMRGESKSLGPALLLLQKQLSLPETGELDSATLKAMRTPRCGVPDLGRFQTFEGDLKWHHHNITYWIQNYSEDLPRAVIDDAFARAFALWSAVTPLTFTRVYSRDADIVIQFGVAEHGDGYPFDGKDGLLAHAFPPGPGIQGDAHFDDDELWSLGKGVVVPTRFGNADGAACHFPFIFEGRSYSACTTDGRSDGLPWCSTTANYDTDDRFGFCPSERLYTQDGNADGKPCQFPFIFQGQSYSACTTDGRSDGYRWCATTANYDRDKLFGFCPTRADSTVMGGNSAGELCVFPFTFLGKEYSTCTSEGRGDGRLWCATTSNFDSDKKWGFCPDQGYSLFLVAAHEFGHALGLDHSSVPEALMYPMYRFTEGPPLHKDDVNGIRHLYGPRPEPEPRPPTTTTPQPTAPPTVCPTGPPTVHPSERPTAGPTGPPSAGPTGPPTAGPSTATTVPLSPVDDACNVNIFDAIAEIGNQLYLFKDGKYWRFSEGRGSRPQGPFLIADKWPALPRKLDSVFEERLSKKLFFFSGRQVWVYTGASVLGPRRLDKLGLGADVAQVTGALRSGRGKMLLFSGRRLWRFDVKAQMVDPRSASEVDRMFPGVPLDTHDVFQYREKAYFCQDRFYWRVSSRSELNQVDQVGYVTYDILQCPED
As to B1, the “zymography of MMP-9 after FLAG immunoprecipitation” value in series [1] is “the activity of MMP-9 is suppressed in FCHo1 deletion mutations A563-564 and A531-589 compared with the wild-type”; in series [2], “the activity of MMP-9 is suppressed in FCHo1 deletion mutations A563-564 and A531-589 compared with the wild-type”.
